The chains are these.
B1: I309 (ligand, human, UniProt P22362 24-96, looked up)
chain: KSMQVPFSRCCFSFAEQEIPLRAILCYRNTSSICSNEGLIFKLKRGKEACALDTVGWVQRHRKMLRHCPSKRK
B2: PF4 (ligand, human, UniProt P02776 32-101, looked up)
chain: EAEEDGDLQCLCVKTTSQVRPRHITSLEVIKAGPHCPTAQLIATLKNGRKICLDLQAPLYKKIIKKLLES
B3: NAP-2 (ligand, human, UniProt P02775 59-128, looked up)
chain: AELRCMCIKTTSGIHPKNIQSLEVIGKGTHCNQVEVIATLKDGRKICLDPDAPRIKKIVQKKLAGDESAD

Bounds are passed on as bounds.

Sequence of human CXC Chemokine Receptor 3 (CXCR3) (human) (P49682 whole entry): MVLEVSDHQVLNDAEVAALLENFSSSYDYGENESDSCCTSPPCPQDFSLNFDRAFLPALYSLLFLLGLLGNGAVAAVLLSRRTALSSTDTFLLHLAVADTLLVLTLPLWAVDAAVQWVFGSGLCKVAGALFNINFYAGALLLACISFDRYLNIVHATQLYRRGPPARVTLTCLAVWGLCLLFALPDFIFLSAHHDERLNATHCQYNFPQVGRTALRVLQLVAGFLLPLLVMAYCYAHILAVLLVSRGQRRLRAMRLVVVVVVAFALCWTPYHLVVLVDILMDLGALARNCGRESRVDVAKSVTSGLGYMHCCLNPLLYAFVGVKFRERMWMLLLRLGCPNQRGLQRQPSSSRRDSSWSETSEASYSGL

The assay has as its target human CXC Chemokine Receptor 3 (CXCR3) (human) (UniProt P49682). The assay is described as follows: cell-based or functional assay.
“ENA78 (from UniProt P42830 37-114) (ligand)” showed a [Ca^2+]i changes in IP-10/MigR transfectants above 100 nM.

Consider “GCP-2 (from UniProt P80162 38-114) (ligand)”, for which the [Ca^2+]i changes in IP-10/MigR transfectants was above 100 nM.

With “GROα (from UniProt P09341 35-107) (ligand)”, the [Ca^2+]i changes in IP-10/MigR transfectants is above 100 nM. Molecule “IL-8 (from UniProt P10145 28-99) (ligand)” returned a [Ca^2+]i changes in IP-10/MigR transfectants above 100 nM. For the molecule “MCP-1 (from UniProt P13500 24-99) (ligand)”, the [Ca^2+]i changes in IP-10/MigR transfectants is above 100 nM. “MCP-2 (from UniProt P80075 24-99) (ligand)” came in with a [Ca^2+]i changes in IP-10/MigR transfectants above 100 nM. Take “MCP-3 (from UniProt P80098 24-99) (ligand)”: the [Ca^2+]i changes in IP-10/MigR transfectants is above 100 nM. Molecule “MCP-4 (from UniProt Q99616 24-98) (ligand)” yielded a [Ca^2+]i changes in IP-10/MigR transfectants above 100 nM. The molecule “MIP-1α (from UniProt P10147 24-92) (ligand)” showed a [Ca^2+]i changes in IP-10/MigR transfectants above 100 nM. As to “MIP-1β (from UniProt P13236 24-92) (ligand)”, the [Ca^2+]i changes in IP-10/MigR transfectants was above 100 nM.

In the case of “RANTES (from UniProt P13501 24-91) (ligand)”, the [Ca^2+]i changes in IP-10/MigR transfectants was above 100 nM.

In turn, “eotaxin (from UniProt P51671 24-97) (ligand)” had a [Ca^2+]i changes in IP-10/MigR transfectants above 100 nM. In turn, “lymphotactin (from UniProt P47992 22-114) (ligand)” gave a [Ca^2+]i changes in IP-10/MigR transfectants above 100 nM. The figure for B1 is above 100 nM; for B2 it is above 100 nM. In the case of B3, the [Ca^2+]i changes in IP-10/MigR transfectants was above 100 nM.

These data come from patent US7407655.
